# Positions of bridges follow the written chain, without caps; N, C: chain ends.
# B1: Compound 47 (peptide)
# peptide: Ac-ICIWQDWGAHRCTGAES-NH2
# modifications: disulfide 2-12
# SMILES: CC[C@H](C)[C@H](NC(C)=O)C(=O)N[C@H]1CSSC[C@@H](C(=O)N[C@H](C(=O)NCC(=O)N[C@@H](C)C(=O)N[C@@H](CCC(=O)O)C(=O)N[C@@H](CO)C(N)=O)[C@@H](C)O)NC(=O)[C@H](CCCNC(=N)N)NC(=O)[C@H](Cc2c[nH]cn2)NC(=O)[C@H](C)NC(=O)CNC(=O)[C@H](Cc2c[nH]c3ccccc23)NC(=O)[C@H](CC(=O)O)NC(=O)[C@H](CCC(N)=O)NC(=O)[C@H](Cc2c[nH]c3ccccc23)NC(=O)[C@H]([C@@H](C)CC)NC1=O
# B2: Compound 36 (peptide)
# peptide: Ac-ESEICIWQDWGEHRCEGE-NH2
# modifications: disulfide 5-15
# SMILES: CC[C@H](C)[C@@H]1NC(=O)[C@@H](NC(=O)[C@@H](NC(=O)[C@H](CCC(=O)O)NC(=O)[C@H](CO)NC(=O)[C@H](CCC(=O)O)NC(C)=O)[C@@H](C)CC)CSSC[C@@H](C(=O)N[C@@H](CCC(=O)O)C(=O)NCC(=O)N[C@@H](CCC(=O)O)C(N)=O)NC(=O)[C@H](CCCNC(=N)N)NC(=O)[C@H](Cc2c[nH]cn2)NC(=O)[C@H](CCC(=O)O)NC(=O)CNC(=O)[C@H](Cc2c[nH]c3ccccc23)NC(=O)[C@H](CC(=O)O)NC(=O)[C@H](CCC(N)=O)NC(=O)[C@H](Cc2c[nH]c3ccccc23)NC1=O
# B3: Compound 27 (peptide)
# peptide: Ac-ICIWQDWGEHRCEGE-NH2
# modifications: disulfide 2-12
# SMILES: CC[C@H](C)[C@H](NC(C)=O)C(=O)N[C@H]1CSSC[C@@H](C(=O)N[C@@H](CCC(=O)O)C(=O)NCC(=O)N[C@@H](CCC(=O)O)C(N)=O)NC(=O)[C@H](CCCNC(=N)N)NC(=O)[C@H](Cc2c[nH]cn2)NC(=O)[C@H](CCC(=O)O)NC(=O)CNC(=O)[C@H](Cc2c[nH]c3ccccc23)NC(=O)[C@H](CC(=O)O)NC(=O)[C@H](CCC(N)=O)NC(=O)[C@H](Cc2c[nH]c3ccccc23)NC(=O)[C@H]([C@@H](C)CC)NC1=O
# B4: Compound 33 (peptide)
# peptide: Ac-EICIWQDWGEHRCTE-NH2
# modifications: disulfide 3-13
# SMILES: CC[C@H](C)[C@@H]1NC(=O)[C@@H](NC(=O)[C@@H](NC(=O)[C@H](CCC(=O)O)NC(C)=O)[C@@H](C)CC)CSSC[C@@H](C(=O)N[C@H](C(=O)N[C@@H](CCC(=O)O)C(N)=O)[C@@H](C)O)NC(=O)[C@H](CCCNC(=N)N)NC(=O)[C@H](Cc2c[nH]cn2)NC(=O)[C@H](CCC(=O)O)NC(=O)CNC(=O)[C@H](Cc2c[nH]c3ccccc23)NC(=O)[C@H](CC(=O)O)NC(=O)[C@H](CCC(N)=O)NC(=O)[C@H](Cc2c[nH]c3ccccc23)NC1=O
# B5: Compound 34 (peptide)
# peptide: Ac-EICIWQDWGEHRCTEGE-NH2
# modifications: disulfide 3-13
# SMILES: CC[C@H](C)[C@@H]1NC(=O)[C@@H](NC(=O)[C@@H](NC(=O)[C@H](CCC(=O)O)NC(C)=O)[C@@H](C)CC)CSSC[C@@H](C(=O)N[C@H](C(=O)N[C@@H](CCC(=O)O)C(=O)NCC(=O)N[C@@H](CCC(=O)O)C(N)=O)[C@@H](C)O)NC(=O)[C@H](CCCNC(=N)N)NC(=O)[C@H](Cc2c[nH]cn2)NC(=O)[C@H](CCC(=O)O)NC(=O)CNC(=O)[C@H](Cc2c[nH]c3ccccc23)NC(=O)[C@H](CC(=O)O)NC(=O)[C@H](CCC(N)=O)NC(=O)[C@H](Cc2c[nH]c3ccccc23)NC1=O
# B6: Compound 38 (peptide)
# peptide: Ac-EKGICIWQDWGEHRCTEKP-NH2
# modifications: disulfide 5-15
# SMILES: CC[C@H](C)[C@H](NC(=O)CNC(=O)[C@H](CCCCN)NC(=O)[C@H](CCC(=O)O)NC(C)=O)C(=O)N[C@H]1CSSC[C@@H](C(=O)N[C@H](C(=O)N[C@@H](CCC(=O)O)C(=O)N[C@@H](CCCCN)C(=O)N2CCC[C@H]2C(N)=O)[C@@H](C)O)NC(=O)[C@H](CCCNC(=N)N)NC(=O)[C@H](Cc2c[nH]cn2)NC(=O)[C@H](CCC(=O)O)NC(=O)CNC(=O)[C@H](Cc2c[nH]c3ccccc23)NC(=O)[C@H](CC(=O)O)NC(=O)[C@H](CCC(N)=O)NC(=O)[C@H](Cc2c[nH]c3ccccc23)NC(=O)[C@H]([C@@H](C)CC)NC1=O
# B7: Compound 32 (peptide)
# peptide: Ac-SEICIWQDWGEHRCTEA-NH2
# modifications: disulfide 4-14
# SMILES: CC[C@H](C)[C@@H]1NC(=O)[C@@H](NC(=O)[C@@H](NC(=O)[C@H](CCC(=O)O)NC(=O)[C@H](CO)NC(C)=O)[C@@H](C)CC)CSSC[C@@H](C(=O)N[C@H](C(=O)N[C@@H](CCC(=O)O)C(=O)N[C@@H](C)C(N)=O)[C@@H](C)O)NC(=O)[C@H](CCCNC(=N)N)NC(=O)[C@H](Cc2c[nH]cn2)NC(=O)[C@H](CCC(=O)O)NC(=O)CNC(=O)[C@H](Cc2c[nH]c3ccccc23)NC(=O)[C@H](CC(=O)O)NC(=O)[C@H](CCC(N)=O)NC(=O)[C@H](Cc2c[nH]c3ccccc23)NC1=O
# B8: Compound 31 (peptide)
# peptide: Ac-ESEICIWQDWGEHRCT-NH2
# modifications: disulfide 5-15
# SMILES: CC[C@H](C)[C@@H]1NC(=O)[C@@H](NC(=O)[C@@H](NC(=O)[C@H](CCC(=O)O)NC(=O)[C@H](CO)NC(=O)[C@H](CCC(=O)O)NC(C)=O)[C@@H](C)CC)CSSC[C@@H](C(=O)N[C@H](C(N)=O)[C@@H](C)O)NC(=O)[C@H](CCCNC(=N)N)NC(=O)[C@H](Cc2c[nH]cn2)NC(=O)[C@H](CCC(=O)O)NC(=O)CNC(=O)[C@H](Cc2c[nH]c3ccccc23)NC(=O)[C@H](CC(=O)O)NC(=O)[C@H](CCC(N)=O)NC(=O)[C@H](Cc2c[nH]c3ccccc23)NC1=O
# B9: Compound 42 (peptide)
# peptide: Ac-SAICIWQDWGEHRCTEG-NH2
# modifications: disulfide 4-14
# SMILES: CC[C@H](C)[C@H](NC(=O)[C@H](C)NC(=O)[C@H](CO)NC(C)=O)C(=O)N[C@H]1CSSC[C@@H](C(=O)N[C@H](C(=O)N[C@@H](CCC(=O)O)C(=O)NCC(N)=O)[C@@H](C)O)NC(=O)[C@H](CCCNC(=N)N)NC(=O)[C@H](Cc2c[nH]cn2)NC(=O)[C@H](CCC(=O)O)NC(=O)CNC(=O)[C@H](Cc2c[nH]c3ccccc23)NC(=O)[C@H](CC(=O)O)NC(=O)[C@H](CCC(N)=O)NC(=O)[C@H](Cc2c[nH]c3ccccc23)NC(=O)[C@H]([C@@H](C)CC)NC1=O
# B10: Compound 39 (peptide)
# peptide: Ac-ICIWQDWGEHRCTEGK-NH2
# modifications: disulfide 2-12
# SMILES: CC[C@H](C)[C@H](NC(C)=O)C(=O)N[C@H]1CSSC[C@@H](C(=O)N[C@H](C(=O)N[C@@H](CCC(=O)O)C(=O)NCC(=O)N[C@@H](CCCCN)C(N)=O)[C@@H](C)O)NC(=O)[C@H](CCCNC(=N)N)NC(=O)[C@H](Cc2c[nH]cn2)NC(=O)[C@H](CCC(=O)O)NC(=O)CNC(=O)[C@H](Cc2c[nH]c3ccccc23)NC(=O)[C@H](CC(=O)O)NC(=O)[C@H](CCC(N)=O)NC(=O)[C@H](Cc2c[nH]c3ccccc23)NC(=O)[C@H]([C@@H](C)CC)NC1=O
# B11: Compound 35 (peptide)
# peptide: Ac-EGEICIWQDWGEHRCEGE-NH2
# modifications: disulfide 5-15
# SMILES: CC[C@H](C)[C@@H]1NC(=O)[C@@H](NC(=O)[C@@H](NC(=O)[C@H](CCC(=O)O)NC(=O)CNC(=O)[C@H](CCC(=O)O)NC(C)=O)[C@@H](C)CC)CSSC[C@@H](C(=O)N[C@@H](CCC(=O)O)C(=O)NCC(=O)N[C@@H](CCC(=O)O)C(N)=O)NC(=O)[C@H](CCCNC(=N)N)NC(=O)[C@H](Cc2c[nH]cn2)NC(=O)[C@H](CCC(=O)O)NC(=O)CNC(=O)[C@H](Cc2c[nH]c3ccccc23)NC(=O)[C@H](CC(=O)O)NC(=O)[C@H](CCC(N)=O)NC(=O)[C@H](Cc2c[nH]c3ccccc23)NC1=O
# B12: Compound 37 (peptide)
# peptide: Ac-KEKICIWQDWGEHRCTEKE-NH2
# modifications: disulfide 5-15
# SMILES: CC[C@H](C)[C@@H]1NC(=O)[C@@H](NC(=O)[C@@H](NC(=O)[C@H](CCCCN)NC(=O)[C@H](CCC(=O)O)NC(=O)[C@H](CCCCN)NC(C)=O)[C@@H](C)CC)CSSC[C@@H](C(=O)N[C@H](C(=O)N[C@@H](CCC(=O)O)C(=O)N[C@@H](CCCCN)C(=O)N[C@@H](CCC(=O)O)C(N)=O)[C@@H](C)O)NC(=O)[C@H](CCCNC(=N)N)NC(=O)[C@H](Cc2c[nH]cn2)NC(=O)[C@H](CCC(=O)O)NC(=O)CNC(=O)[C@H](Cc2c[nH]c3ccccc23)NC(=O)[C@H](CC(=O)O)NC(=O)[C@H](CCC(N)=O)NC(=O)[C@H](Cc2c[nH]c3ccccc23)NC1=O
# B13: Compound 46 (peptide)
# peptide: Ac-ESSAICIWQDWGAHRCT-NH2
# modifications: disulfide 6-16
# SMILES: CC[C@H](C)[C@H](NC(=O)[C@H](C)NC(=O)[C@H](CO)NC(=O)[C@H](CO)NC(=O)[C@H](CCC(=O)O)NC(C)=O)C(=O)N[C@H]1CSSC[C@@H](C(=O)N[C@H](C(N)=O)[C@@H](C)O)NC(=O)[C@H](CCCNC(=N)N)NC(=O)[C@H](Cc2c[nH]cn2)NC(=O)[C@H](C)NC(=O)CNC(=O)[C@H](Cc2c[nH]c3ccccc23)NC(=O)[C@H](CC(=O)O)NC(=O)[C@H](CCC(N)=O)NC(=O)[C@H](Cc2c[nH]c3ccccc23)NC(=O)[C@H]([C@@H](C)CC)NC1=O
# B14: Compound 30 (peptide)
# peptide: Ac-EGEICIWQDWGEHRCT-NH2
# modifications: disulfide 5-15
# SMILES: CC[C@H](C)[C@@H]1NC(=O)[C@@H](NC(=O)[C@@H](NC(=O)[C@H](CCC(=O)O)NC(=O)CNC(=O)[C@H](CCC(=O)O)NC(C)=O)[C@@H](C)CC)CSSC[C@@H](C(=O)N[C@H](C(N)=O)[C@@H](C)O)NC(=O)[C@H](CCCNC(=N)N)NC(=O)[C@H](Cc2c[nH]cn2)NC(=O)[C@H](CCC(=O)O)NC(=O)CNC(=O)[C@H](Cc2c[nH]c3ccccc23)NC(=O)[C@H](CC(=O)O)NC(=O)[C@H](CCC(N)=O)NC(=O)[C@H](Cc2c[nH]c3ccccc23)NC1=O
# Target: Human C3 (human, UniProt P01024 23-1663)
# Experiment: cell-based or functional assay
# Chain of Human C3 (P01024 23-1663 limits assumed): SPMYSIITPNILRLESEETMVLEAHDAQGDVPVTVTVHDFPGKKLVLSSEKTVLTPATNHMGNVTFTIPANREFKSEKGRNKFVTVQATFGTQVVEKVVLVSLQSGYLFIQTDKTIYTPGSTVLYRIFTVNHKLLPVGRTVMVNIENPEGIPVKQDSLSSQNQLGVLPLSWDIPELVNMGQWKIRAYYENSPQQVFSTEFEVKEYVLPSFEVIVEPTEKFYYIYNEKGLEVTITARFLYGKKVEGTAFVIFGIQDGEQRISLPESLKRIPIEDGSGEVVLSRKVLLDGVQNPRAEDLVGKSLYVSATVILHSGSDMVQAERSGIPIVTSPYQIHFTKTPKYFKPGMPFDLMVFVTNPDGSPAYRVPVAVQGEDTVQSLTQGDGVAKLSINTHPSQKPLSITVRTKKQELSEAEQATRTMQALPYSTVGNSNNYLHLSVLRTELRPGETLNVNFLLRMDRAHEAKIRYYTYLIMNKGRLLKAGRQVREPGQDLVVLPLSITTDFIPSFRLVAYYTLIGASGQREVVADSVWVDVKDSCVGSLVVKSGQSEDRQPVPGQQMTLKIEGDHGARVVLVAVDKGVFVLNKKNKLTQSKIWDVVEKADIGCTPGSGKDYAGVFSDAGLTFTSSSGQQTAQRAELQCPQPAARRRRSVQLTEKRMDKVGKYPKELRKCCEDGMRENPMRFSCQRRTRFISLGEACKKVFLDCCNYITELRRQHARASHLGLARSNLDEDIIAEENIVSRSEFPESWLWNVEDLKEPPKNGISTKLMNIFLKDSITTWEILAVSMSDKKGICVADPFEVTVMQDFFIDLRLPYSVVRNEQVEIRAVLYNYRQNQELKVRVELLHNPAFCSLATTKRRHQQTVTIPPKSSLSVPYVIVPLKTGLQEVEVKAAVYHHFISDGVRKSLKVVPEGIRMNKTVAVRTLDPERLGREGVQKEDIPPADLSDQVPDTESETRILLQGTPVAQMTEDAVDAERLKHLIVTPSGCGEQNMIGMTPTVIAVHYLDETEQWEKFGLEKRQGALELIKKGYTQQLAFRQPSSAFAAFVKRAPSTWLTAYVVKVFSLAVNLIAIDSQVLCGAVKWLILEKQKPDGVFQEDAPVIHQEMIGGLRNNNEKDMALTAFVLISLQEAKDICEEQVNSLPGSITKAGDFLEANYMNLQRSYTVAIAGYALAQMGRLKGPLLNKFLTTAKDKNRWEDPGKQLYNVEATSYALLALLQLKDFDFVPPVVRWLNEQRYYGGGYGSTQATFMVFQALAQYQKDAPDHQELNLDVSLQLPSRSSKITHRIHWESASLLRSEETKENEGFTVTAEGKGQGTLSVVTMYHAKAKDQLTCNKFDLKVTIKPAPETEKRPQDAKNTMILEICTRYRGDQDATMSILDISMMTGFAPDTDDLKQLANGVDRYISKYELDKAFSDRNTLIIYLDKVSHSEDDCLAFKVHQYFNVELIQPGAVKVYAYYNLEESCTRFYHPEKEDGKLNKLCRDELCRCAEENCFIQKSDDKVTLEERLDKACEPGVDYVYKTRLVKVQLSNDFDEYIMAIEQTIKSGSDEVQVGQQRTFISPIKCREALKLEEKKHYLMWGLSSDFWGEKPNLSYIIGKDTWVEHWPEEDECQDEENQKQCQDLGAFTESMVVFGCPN
row,Binder,"IC50[nM], inhibition of hemolysis [nM]"
1,B1,< 100
2,B2,< 250
3,B3,< 100
4,B4,< 100
5,B5,< 250
6,B6,< 250
7,B7,< 100
8,B8,< 100
9,B9,< 250
10,B10,< 100
11,B11,< 500
12,B12,< 250
13,B13,< 100
14,B14,< 100
